T1: recombinant CTLA-4-His protein (UniProt P16410 36-161, limits assumed)
T1 construct: Obtained from Kelun-Biotech; only the UniProt entry is named; also called CLTA-4-His; not shown: His tag
T1 sequence (looked up): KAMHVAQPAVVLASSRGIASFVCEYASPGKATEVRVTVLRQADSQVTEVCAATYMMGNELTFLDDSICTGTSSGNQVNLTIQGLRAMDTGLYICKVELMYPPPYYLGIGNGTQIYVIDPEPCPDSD

B1: anti-PDL-1 parental antibody AB01 (antibody, human IgG1, kappa)
heavy: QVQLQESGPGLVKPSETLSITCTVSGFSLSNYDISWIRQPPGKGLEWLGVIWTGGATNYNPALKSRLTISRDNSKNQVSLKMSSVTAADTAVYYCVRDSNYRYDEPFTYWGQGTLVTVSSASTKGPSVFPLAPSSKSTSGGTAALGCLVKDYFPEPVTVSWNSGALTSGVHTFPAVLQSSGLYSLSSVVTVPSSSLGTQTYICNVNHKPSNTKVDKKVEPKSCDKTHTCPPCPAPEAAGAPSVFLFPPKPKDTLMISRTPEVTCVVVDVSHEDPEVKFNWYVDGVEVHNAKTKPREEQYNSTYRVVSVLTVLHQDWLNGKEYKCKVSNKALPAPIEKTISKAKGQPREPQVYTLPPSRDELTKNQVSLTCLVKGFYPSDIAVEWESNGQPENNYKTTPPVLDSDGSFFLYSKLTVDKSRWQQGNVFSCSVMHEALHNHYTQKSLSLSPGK
light: EIVLTQSPDTLSVTPKEKVTLTCRASQSIGTNIHWFQQKPGQSPKLLIKYASESISGVPSRFSGSGSGTDFTLTINSVEAEDAATYYCQQSNSWPYTFGQGTKLEIKRTVAAPSVFIFPPSDEQLKSGTASVVCLLNNFYPREAKVQWKVDNALQSGNSQESVTEQDSKDSTYSLSSTLTLSKADYEKHKVYACEVTHQGLSSPVTKSFNRGEC
notes: also called PDL-1 antibody AB01
B2: anti-PDL-1/CTLA-4 recombinant bispecific antibody AB03 (bispecific antibody, human IgG1, kappa)
heavy: not shown
light: B1 light
notes: The scFv is at the N-terminus of the heavy chain; also called AB003
B3: anti-PDL-1/CTLA-4 recombinant bispecific antibody AB04 (bispecific antibody, human IgG1, kappa)
heavy: not shown
light: B1 light
notes: The scFv is at the C-terminus of the heavy chain; also called AB4

Columns and labels:
[1] = target: T2, recombinant PDL-1-mFc protein (UniProt Q9NZQ7 19-238); assay: competitive ELISA: PD1-hFc coated, antibody premixed with PDL-1-mFc, anti-mouse IgG-HRP detection; competitor PD1-hFc
T2 construct: Obtained from Kelun-Biotech; only the UniProt entry is named; not shown: mFc part
Procedure: The recombinant PD1-hFc protein (purchased from Sino Biological Inc.) was added into a 96-well enzyme labeled plate (purchased from Thermo) at 100 ng/well, and the coating was carried out at 4° C. overnight. On the next day, the solution in the wells was discarded and wells were washed one time with washing buffer (phosphate buffer solution containing 0.05% Tween-20) and the solution in the wells was discarded again. PBS solution containing 2% BSA was added at 100 μl/well for blocking the wells at 37° C. for 2 hours, and then the solution in the wells was discarded. […] The plate was incubated at 37° C. for 2 hours, then the solution in the wells was discarded and the well was washed with the washing buffer for three times. HRP conjugated goat anti-mouse IgG(H+L) (purchased from Thermo) solution was added into the plate at 100 μl/well and the plate was incubated at 37° C. for 1 hour. TMB solution was added to the wells, and the reaction was carried out at room temperature for about 5 minutes. Stop solution was added to the plate, and then the plate was put into an ELISA instrument in order to read an OD450 light absorbance value.

[2] = target: T2, recombinant PDL-1-mFc protein; assay: ELISA: PDL-1-mFc coated, anti-human IgG-HRP detection
Procedure: On the next day, the solution in the wells was discarded, and the wells were washed with a washing buffer (a phosphate buffer solution containing 0.05% Tween-20) for one time and the solution in the wells was discarded. PBS solution containing 2% BSA was added at 100 μl/well and the wells were blocked at […] for 2 hours. Then the solution in the well was discarded. […] The plate was incubated at 37° C. for 2 hours, then the solution in the wells was discarded and the wells were washed for three times. HRP conjugated goat anti-human IgG(H+L) was added into the plate at 100 μl/well and the plate was incubated at 37° C. for 1 hour. TMB solution was added to the wells at a concentration of 100 μl/well, and the reaction was carried out at room temperature for about 5 minutes. A stop solution at 100 μl/well was added to the plate, and then the plate was put into an ELISA plate reader reading OD450 absorbance values.

[3] = target: T3, recombinant CD16a (Val) protein (UniProt P08637 17-208, limits assumed); assay: ELISA: CD16a (Val) coated, antibody crosslinked with goat F(ab)2 anti-human kappa
T3 construct: Purchased from Sino Biological Inc. '(Val)' is printed without the position of the valine
Procedure: The recombinant CD16a (Val) protein (purchased from Sino Biological Inc.) was added into a 96-well enzyme labeled plate (purchased from Thermo) at 100 ng/well, and coating was carried out at 4° C. overnight. On the next day, the solution in the wells was discarded, the wells were washed with a washing buffer solution (a phosphate buffer solution containing 0.05% Tween-20) for one time and the solution in the wells was discarded. PBS solution containing 2% BSA was added at 100 μl/well for blocking the well at 25° C. for 2 hours, and then solution in the wells was discarded. […] The plate was incubated at 25° C. for 2 hours, then the solution in the wells was discarded and the well was washed with the washing buffer for three times. […] Then solution in the well was discarded and the well was washed with the washing buffer for five times. TMB solution was added to the well at a concentration of 100 μl/well, and the reaction was carried out at room temperature for about 30 minutes. Stop solution at 100 μl/well was added to the plate, and then the plate was put into an ELISA instrument to read OD450 absorbance values.

[4] = target: PDL-1 expressed on CHO-PDL-1-CD3L cells (UniProt Q9NZQ7 19-290, limits assumed); assay: cell-based or functional assay
[5] = target: T1, recombinant CTLA-4-His protein; assay: ELISA: CTLA-4-His batch 2 coated, anti-human IgG-HRP detection
Procedure: (§1) Two batches of recombinant CLTA-4-His proteins (obtained from Kelun-Biotech, Uniport No.: P16410) were diluted with PBS respectively, the dilutes of CTLA-4-His at 100 μl/well were added into a 96-well ELISA plate, and coating was carried out at 4° C. overnight. On the next day, the solution in the wells was discarded, and wells were washed one time with washing buffer and the solution in the wells was discarded again. PBS solution containing 2% BSA was added at 100 μl/well for blocking the well at 37° C. for 2 hours, and then the solution in the well was discarded. […] The HRP conjugated goat anti-human IgG (H+L) solution was added into the plate and the plate was incubated at 37° C. for 1 hour. TMB solution was added to the well, and the reaction was carried out at room temperature for about 8 minutes. The stop solution was added to the plate, and then the plate was put into an ELISA plate reader to read OD450 absorbance values. Fitting curves were made by the means of the experimental data, as shown in FIG. 4A and FIG. 4B, and EC50 was calculated.

[6] = target: T2, recombinant PDL-1-mFc protein; assay: bridging ELISA for both antigens at once: PDL-1-mFc coated, antibody titrated, then 1.5 ug/ml CTLA-4-His, anti-His-HRP detection
Procedure: On the next day, the solution in the wells was discarded, wells were washed one time with washing buffer (phosphate buffer solution containing 0.05% Tween-20) and solution in the well was discarded again. PBS solution containing 2% BSA was added at 100 μl/well for blocking the wells at 37° C. for 2 hours, and then solution in the wells was discarded. The recombinant bispecific antibodies were diluted 5 folds serially at a start concentration of 100000 ng/mL to get 11 concentration gradients, and were added to the wells at 100 μl/well. The plate was incubated at 37° C. for 2 hours, then the solution in the wells was discarded and wells were washed with the washing buffer for three times. 1.5 ug/ml of the CTLA-4-His protein was added into the plate at 100 μl/well, and plate was incubated at 37° C. for 2 hours. Then the solution in the wells was discarded and wells were washed with the washing buffer for three times. HRP conjugated goat anti-his (purchased from BioLegend) was added into the plate and the plate was incubated at 37° C. for 1 hour. TMB solution was added to the wells, and the reaction was carried out at room temperature for about 5 minutes. Stop solution was added to the plate, and then the plate was put into an ELISA plate reader to read OD450 absorbance values.

[7] = target: T1, recombinant CTLA-4-His protein; assay: ELISA: CTLA-4-His batch 1 coated, anti-human IgG-HRP detection
Procedure: as §1

[8] = target: T1, recombinant CTLA-4-His protein; assay: ELISA: CTLA-4-His coated; reference AB02
Procedure: as §1

T3 sequence (P08637 17-208 F176V limits assumed): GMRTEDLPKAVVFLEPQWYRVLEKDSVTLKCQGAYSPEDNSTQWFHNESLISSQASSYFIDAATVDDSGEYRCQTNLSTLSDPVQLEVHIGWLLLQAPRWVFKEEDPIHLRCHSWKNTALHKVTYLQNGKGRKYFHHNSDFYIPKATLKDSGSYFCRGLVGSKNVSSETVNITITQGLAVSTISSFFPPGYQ
T2 sequence (Q9NZQ7 19-238): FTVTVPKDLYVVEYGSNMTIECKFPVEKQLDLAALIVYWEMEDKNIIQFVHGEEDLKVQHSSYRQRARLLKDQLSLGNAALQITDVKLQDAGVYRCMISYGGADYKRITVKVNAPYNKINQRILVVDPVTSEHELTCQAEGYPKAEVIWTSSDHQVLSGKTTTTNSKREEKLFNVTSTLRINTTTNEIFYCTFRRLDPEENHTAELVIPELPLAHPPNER
Sequence of PDL-1 expressed on CHO-PDL-1-CD3L cells (Q9NZQ7 19-290 limits assumed): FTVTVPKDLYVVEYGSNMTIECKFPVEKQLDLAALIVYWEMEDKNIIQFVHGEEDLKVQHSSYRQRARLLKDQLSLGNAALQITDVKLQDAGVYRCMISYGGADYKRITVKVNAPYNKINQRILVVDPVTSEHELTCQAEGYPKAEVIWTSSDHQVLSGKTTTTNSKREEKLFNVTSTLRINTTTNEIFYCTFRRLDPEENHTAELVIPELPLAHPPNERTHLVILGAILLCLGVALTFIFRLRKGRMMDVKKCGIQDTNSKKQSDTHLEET

Row | Binder | EC50 [1] [nM] | EC50 [2] [nM] | binding result [3] | EC50 of blocking PDL-1/PD1 in the luciferase (NFAT) reporter assay [4] [nM] | EC50 [5] [nM] | EC50 [6] [nM] | EC50 [7] [nM] | EC50 as a multiple of that of AB02 [8] [times]
1 | B1 | 3.82 | 0.0155 | no binding (tested: 50 ug/ml, then 3-fold dilutions) | 1.68 |  |  |  | 
2 | B2 | 2.6 | 0.0215 | binds | 1.82 | 0.0862 | 0.0162 | 0.107 | 
3 | B3 | 1.84 | 0.0324 | binds | 1.53 | 0.531 | 0.013 | 0.6 | 10 to 12
